Test results: the supplement of paper PMC7125110
± gives the standard error. Fewer inactive variants are shown than the library holds.

B1: glmS ribozyme (parent)
chain: AUAAAAGCGCCAGAACUACAGAAAUGUAGUUGACGAGGAGGAGGUUUAUCGAAUUUUCGGCGGAUGCCUCCAAA

What was measured:
Settings in all cases: with glucosamine-6-phosphate
[1] = variants of: B1; assay: self-cleavage kobs at 160 uM GlcN6P; higher = faster cleavage; RNA array
Summary of the method: (§1)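 Weighted Michaelis–Menten fits across concentrations supplied kcat and KM, based on kobs from one- or two-exponential decay fits to normalised per-tile medians. The data came from barcoded ribozyme variants transcribed in situ by E. coli RNA polymerase on sequenced MiSeq chips and tracked at 37 °C by a hybridised Cy3 probe. Glucosamine-6-phosphate (40 μM to 10 mM) in HEPES/KCl/Mg(OAc)2 buffer was flowed in.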

[2] = variants of: B1; assay: self-cleavage kobs at 640 uM GlcN6P; higher = faster cleavage; RNA array
Summary of the method: as §1

[3] = variants of: B1; assay: self-cleavage kobs at 2500 uM GlcN6P; higher = faster cleavage; RNA array
Summary of the method: as §1

[4] = variants of: B1; assay: self-cleavage kobs at 10000 uM GlcN6P; higher = faster cleavage; RNA array
Summary of the method: as §1

Variant | self-cleavage kobs at 160 uM GlcN6P [1] [s⁻¹] | self-cleavage kobs at 640 uM GlcN6P [2] [s⁻¹] | self-cleavage kobs at 2500 uM GlcN6P [3] [s⁻¹] | self-cleavage kobs at 10000 uM GlcN6P [4] [s⁻¹]
G43C A52C U57C | < 1e-05 | < 1e-05 | – | –
A6G G43U U65C | < 1e-05 | < 1e-05 | < 1e-05 | –
C34G C50G | 5.61e-05 ± 2.4e-05 | 0.00014 ± 5.7e-05 | 9.6e-05 ± 3.6e-05 | –
C8A C10U U31A | < 1e-05 | – | – | < 1e-05
C8G G51A U55G | < 1e-05 | < 1e-05 | – | –
G9C A14G G59U | < 1e-05 | – | – | –
A14C U55G C67U | 0.00016 ± 4.2e-05 | 0.000309 ± 9.8e-05 | 0.000399 ± 0.00015 | –
A6G G7A G43C | < 1e-05 | < 1e-05 | < 1e-05 | < 1e-05
C34A G38U A53C | < 1e-05 | < 1e-05 | < 1e-05 | –
C8G A12U G63U | < 1e-05 | < 1e-05 | < 1e-05 | –
G7U G13C A39G | < 1e-05 | < 1e-05 | < 1e-05 | –
A53C G60U A64U U65G | < 1e-05 | < 1e-05 | – | –
C8G G9U G29C G32C A52C | < 1e-05 | – | < 1e-05 | –
A14G G35U G66U | < 1e-05 | < 1e-05 | – | –
C10U G40U G66U C67U | < 1e-05 | – | < 1e-05 | –
G7C A33C G59A | < 1e-05 | – | – | –
C34U G41C G66U | < 1e-05 | < 1e-05 | < 1e-05 | –
U47A G66A | 0.00046 ± 0.00012 | 0.00249 ± 0.00067 | 0.00842 ± 0.0039 | –
G35A C58U | < 1e-05 | – | < 1e-05 | < 1e-05
C11G G35A C58G | < 1e-05 | < 1e-05 | < 1e-05 | –
G35A G43U C68U | < 1e-05 | – | < 1e-05 | –
U45G U47G | 0.000328 ± 9.1e-05 | 0.00314 ± 0.00086 | 0.00347 ± 0.00055 | –
G13A A33C | < 1e-05 | < 1e-05 | – | < 1e-05
C11A C34U G60U C71A | < 1e-05 | – | < 1e-05 | –
A14G G35U G60A C68G | < 1e-05 | – | – | –
